Source: the nanobody polyreactivity screen of Harvey et al. (2022)

Assay: yeast display, Sf9 membrane polyspecificity reagent, FACS + sequencing; frameworks hold sequencing errors
In short: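 Using colony PCR, genes from sorted yeast display clones were amplified, then sequenced on MiSeq at 2 × 250 and filtered by CDR length. The clones had been stained with 10% biotinylated, detergent-solubilized Sf9 membrane reagent for 1 hour at 4 °C and sorted by FACS into low and high (top ~1%) gates on anti-HA and streptavidin fluorescence. Polyreactivity labels come from the gate of origin.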

Sequence	polyreactivity (PSR sort gate)
QVQLVESGGGLVQAGGSLRLSCAASGSTLDRNTMGWYRQAPGKERELVAAITWSGGRTYYADSVKGRFTITRDNAKNTVYLQMNSLKPEDTAVYYCNKDYWKRPVDEYDYWGQGTQVTVSS	high polyreactivity
QVQLVESGGGLVQAGGSLRLSCAASGLTCTRNAMGWYRQAPGKEREFVAAIRWSAGSTYYADSVKGRFTISRDNAKNTVYLQMNSLTPEDTAVSYCNAALNVSGHYPNDYWGQGTQVTVSS	low polyreactivity
QVQLVETGGGLFQAGGSLRISCAASGSTFYTYAMGWYRQSPGKERELVAAITRRGGRTYYADSVKGRFTISRDNAKNTVYLQMNSLKPEDTAVYYCAADSRTNGYDYWGQGTQVTVSS	high polyreactivity
QVQLVESGGGLVQAGGSLRLSCAASGRTFSVYAMGWYRQAPGKERELVATISWGGGITYYADSVKGRFTISRDNAKNTVYLQMNSLKPEDTAVYYCAAKRSLYPYYYWGQGTQVTVSS	high polyreactivity
QVQLVDSAGGLVQAGGSLRLSCAASGSIFFRYAMGGYRQAAGKERELVAAITQRTGSTYYADSVKGRFTISRDNAKITVYLQMNSLKPEDTAVYYCAAKRWRRSFTGNYWGQGTQVTVSS	high polyreactivity
QVQLVESGGGLVQAGGSLRLSCAASGFTFWRYAMAWYRQAPWKERDLVAAISRTGGRTYYADSVKGRFTISRDNAKNTVYLQMNSLKPEDTAVDYCAAVKYETYRYNYDYWGQGTQVTVSS	high polyreactivity
QVQLEESGGGLVQAGGSLRLSFAASISSINAMGWYRQAPGKESELVAAIRCSGSSTYYADSVKGRFTISRDNAMITFYLQMNSVKPEDTAVYYCAADTSTGDRGFDYWGHGTQVTVSS	high polyreactivity
QVQLVESGGGLVQAGGSLRLSCAASGIIFLKNAMGWYRQAPGKERELVAAITVSGARTYYADSVKGRFTISRDNAKNTVYLQMNSLKPEDTAVYYCATDRSYQRYNYWGQGTQVTVSS	high polyreactivity
QVQLVESGGGLVQAGGSLRLSSAASGSTFRYYVMGRYRQAAGKERELVAGISSRGGTTYYADSVKGRFTISRDNAKNTVYLQMNSLKPEDSAVYYCNADTAAAQASYDRLYVLLDYWGQGTQVTVSS	low polyreactivity
QVQLVESGGGLVQAGGSLRLSCAASGSIFGTYAKGWYRQAPGKERELVADISLSGGSTYYADSVKGRFTISRDTAKKSVYLQMNSLKPEDNAVYYCNAESTAYGYVAVYRYDYWGQGTQVTVSS	low polyreactivity
QVHLVESGGGLFQAGGSLPLSCAASGYIFVRYAKGWYRQAPGKEREFVAAISSSGGSTRYADSVKARFTLSRDNAKNTVYLQMNSLKPEDTAVYYGAATRVARHGSPMYYWGQGTQVTVSS	high polyreactivity
QVQLVESGGGLVQAGGSLRLSCADSGSTFYTNAMGWYRQAPGKERELVAAINRSGGRTYYADSVKGRFTISRDNAKNTVYLQMNSLKPEDPAVYYCAARYPVRFSTDTARDYYWGQGTQVTVSS	low polyreactivity
QVQLVESGGGLVQAGGSLRLSCAASGRIFTNNAMGWYRQEPGKERELVAAISRSGGRTYYADSVKGRFTISRDIAKNTVYLQMNSLKPEDTAVYYCAAVHLFYGYNSPFTMDYWGQGTQVTVSS	high polyreactivity
QVQLVESGGGLLQAGGSLRLSCAASGRTFRYYAMGWYRQAPGKERELVAAISSGGSSTYYADSVKGRFTISRDNAKNTVYLQMNSLKPEDTAVYYCAAGYYPFNYWGQGTQVTVSS	high polyreactivity
QVQIVESGGGLVQAGGSLRLSCAASGSIFGVNAMGWYRQAPGKERELVASITGGDSTNYADSVKGRFTISRDNAKNTVYLQMNSLKPEDTAVYYCAKDHYYRYEEGDYWGQGTQVTVSS	low polyreactivity
QVQLVESGGGLVQAGGSLRLSCAASGYTFRYYAMGWYRQAPGKERELVAAISSSGGNTYYADSVKGRFTISRDNAKNTVYLQMNSLIPEDTAVYYCAARRYQYPGHSLGYYYTDYYWGQGTQVTVSS	low polyreactivity
QVQLVESGGGLVQAGGSLRLSCAASGITFYGYAMGWYRQAPGKERELVARISRGGRTYYADSVKGRFTISRDNAKNTVYLQMNSLKPEDTAVYYCAAGKYWYAGKYLYDYWGQGTQVTVSS	high polyreactivity
QVQLVESRAGLVQAGGSLRLSCAASGSTRNRNVMGWYRPAPGKERELVAVITYGVGSTYYADSVKGRFTISRDNAKNTVYLQMNSLKPEDTAVYYCNKDPLVFDYWAQGTQVTVSS	low polyreactivity
QVQLVESGGGLVQAGGSLRLSCAASGNTFRAYAMGWYRQAPGKERELVATITWSGGITDYADSVKGRFTISRDNAKNTVYLQMNSLKPEDTAVYYCAARSYRWWNFNYWGQGTQVTVSS	high polyreactivity
QVQLVESGGGLVQAGGSLRLSCAASGLTITSNAMGWYRQAPGKERELVASITWSGGSTSYADSVKGRFTISRDNAKNTVYLQMNSLKPEDTAVYDCAADRQRSHRVGTKGHRVGYWGQGTQVTVSS	high polyreactivity
QVQLVESGGGLVQAGGSLRLSCAASGRIFRWYAMGWYRQAPGKERELVAAISRSGTSTYYADSVKGRFTISRDNAKNTVYLQMNSLKPEDTAVYYCAADAVIFGMDYWGQGTQVTVSS	low polyreactivity

Sequence	polyreactivity (PSR sort gate)
QVQLVESGGGLVQAGGSLRLSCAASGSTFGYNTMGWYRQAPGKERELVASITGRGGSTYYADSVKGRFTSSRDNAKNTVYLQMNSLKPEDTAVYYCAAAWKAYRRYGYWGQGTQVTVSS	high polyreactivity
QVQLVESGGGLVQAGGSLRLSCAASGRTFRSNAMGWYRQAPGKERELVATISGRGGSTYYADSVKGRFTISRDNAKNTVYLQMNSLKPEDTAVYYCNAYSVRLSGAELNYWGQGTQVTVSS	high polyreactivity
QVQLVESGGGLVQAGGSLRLSCAASGRTFVYNAMGWYRQAPGKERELVAAITTNGGSTYYADSVKGRFTISRDNSKNTVYLQMNSLKPEDTAVYYCAADYSLPWSWLYEYWGQGTQVTVSS	low polyreactivity
QVQLVESGGGLVQAGGSLRLSCAASGFTFWYYAMGWYRQAPGKERELVADISTRGGSTYYADSVKGRFTISRDNAKNTVYLQMNSLKPEDTAVYYCAAKYARNLAGDDPYDYWGQGTQVTVSS	high polyreactivity
QVQLVESGGGLVQGGGSLRLSCAASGSIFYPYAMGWYRQAPGKERELVARITSSTGSTYYADSVKGRCTISRATAKNTVYLQMTSLKPEDTAVYYCNARRQRNKSYNYWGQGTQVTVSS	high polyreactivity
QVQLVESGGGLVQAGGSLRLSCAASGLILYWYAMGWYRQAPGKERELVAAISISGGSTYYADSVKGRFTISRDNAKNTVYLQMNSLKPEDTAVYYCAAVYFYSWEGDGDYWGQGTQVTVSS	low polyreactivity
QVQLEESVGGLVQAGGSLRLSCAASGSISYKYLMGWYRQAPGKEREFVASMTRIGGSTYYADSVKGRFTISRDNAKNTVYLQMNSLNAEDTAVYYCAADYAIGRLRRGDDYWGQGTQVTVSS	low polyreactivity
QVQLVESGGGLVQAGGSLRLSCAASGSTFQPYAMGWSRQAPGKERECVATISGSAGSTYYADSVKGRFKISRDNAKNTVYLQMNSLKPEDTAVYYCKAESPEGYRLLDYWGQGTQVTVSS	low polyreactivity
QVQLVESGGGLVQAGGSLRLSCAGSGRTFSTYAMGSDRQAPGKERELVAAITRRGGSTYYADSVKGRFTISRDNAKNTVYLQMNSLKPEDTAVYYCARENPGDSYYDYWGQGTQVTVSS	low polyreactivity
QVQLVESGGGLVQAGGSLRLSCAASGISFEYYAMGWYRQAPGKERELVAAITRGGSTYYADSVKGRFTISRDNAKNTVYLQMNSLKPEDTAVYYCAADRYYYEYDYWGQGTQVTVSS	low polyreactivity
QVQLVESGGGLVQAGGSLRLSCAASGFTIRYYAMGWYRQAPGKERELVAAIDWSGGSTYYADSVKGRFTISRDNAKNTVYLQINSLKPEDTAVYYCNVDFYDLYVYLWYVDYDYWGQGTQVTVSS	high polyreactivity
QVQLVESGGGLVQAGGSLRLSCAASGSIFGYNAMGWYRQAPGKERELVAAISLTTGSTYYADSVKGRFTISRDNAKNTVYLQMNCLKPEDTAVYYCAAVDADYYYWGQGTQVTVSS	high polyreactivity
QVHLVESGGGLVQAGGSLRLSCAASGRISYFYAMGWYRQAPGKESELVATITTSAGRTYYADSVKGRFTISRDNAKNTVYLLMNSLKPEDTAVYYCAASRYTYPYNYWGQGTQVTVSS	high polyreactivity
QVQLVESGGGLVQAGGSLRLSSAASGSIFIGYAMGWYRQAPGKARELVAAINDSGDRTYYADSVKGRFTISRDNAKNTVFLQMNSLKREDTAVYYCAADLGSLDPEYDYWGQGTQVTVSS	low polyreactivity
QDQLVESGGGLVQAGGSLRLSCAASGSTIRVKAMGWYRLAPGKERELVAGISKSGTSTYYADSVKGRFTISRDNAKNTVYLQMNSLKPEDTAAYYCATHLGRRTSGSRFGYWGQGTQVTVSS	high polyreactivity
QVQLVESGGGLVQAGGSLRLSSAASGITFPWYAMGWSRQAPGKERELVAAISRSGGSTYADSVKGRFTISRDNAKNTVYLQMNSLKPEDTAVYYCAAGTYSGSRFDYWGQGTQVTVSS	high polyreactivity
QVQLVEAGGGLVQAGGSLRLSCAASGRTFLRYTMGWYRQAPGKEREWVASITRGGSTYYADSVKGRFTISRDNAKNTVYLQMNSLKPEDTAVYYCAAGKALLSRYYYWGQGTQVTVSS	high polyreactivity
QVQLVESGGGLVQAGGSLSLSCAASGLTSSENAMGWYRQAHGKERELVAAINVSGGSTYYADSVKGRFTISRDNAKNTVYLQMNSLKPEDTAVYYCAADNPYAYARSSWYEYNYWGQGTQVTVSS	high polyreactivity
QVQLVESGGGLVQAGGSLRLSCAASGRIFGSYAMGWYRQAPGKERELVAGIRSVGSTYYADSVKGRFTISRDNAKNTVYFQMNSLKPEDTAVYYCAAEYFNQNTRQGYDSWGQGSQVTVSS	low polyreactivity
QVQLVESGGGLVQAGGSLRLSCDASGFTFHPYTMGWYRQAPGKERELVASISWGGGSTYYADSVKGRFTISRDNAKNTVYLQMKSLNPEDTAVYYCAKDITYIYYYWGQGSQVTVSS	low polyreactivity
